Assay results: publication doi:10.1101/2022.10.06.511078

Experiments:
Cofilin-1 (human) = Cofilin-1 (human) (UniProt P23528); experiment: SPR
[1] = target: Ubiquitin carboxyl-terminal hydrolase isozyme L1 (human) (UniProt P09936); experiment: SPR
Sequence of Ubiquitin carboxyl-terminal hydrolase isozyme L1 (human) (P09936 whole entry): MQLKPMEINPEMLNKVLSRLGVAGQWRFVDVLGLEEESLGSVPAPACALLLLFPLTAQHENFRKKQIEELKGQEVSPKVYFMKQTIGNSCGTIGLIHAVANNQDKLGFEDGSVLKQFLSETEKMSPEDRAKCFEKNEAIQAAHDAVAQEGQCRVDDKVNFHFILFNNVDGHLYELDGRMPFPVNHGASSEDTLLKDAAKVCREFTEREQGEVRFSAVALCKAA

Sequence of Cofilin-1 (human) (P23528 whole entry): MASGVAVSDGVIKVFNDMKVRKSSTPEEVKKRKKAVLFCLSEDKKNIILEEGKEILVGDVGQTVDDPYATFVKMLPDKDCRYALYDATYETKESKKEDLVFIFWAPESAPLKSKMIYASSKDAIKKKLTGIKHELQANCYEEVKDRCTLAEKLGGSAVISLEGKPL

“α-synuclein oligomer (from UniProt P37840 1-140) (natural protein)” was tested. Which Kd (Cofilin-1 (human)) did it give?
Its Kd is 290 nM.

And the Kd [1]?
Its Kd is 600 nM.
